# In the RNAGym collection of RNA variant scans (doi:10.7554/elife.80360):
# B1: Twister Ribozyme (parent)
# chain: AACACUGCCAAUGCCGGUCCCAAGCCCGGAUAAAAGUGGAGGGGGCGG
# Variants of: B1
# Assay: self-cleavage, relative activity (ratio to wild type); higher = more cleavage; co-transcriptional
row,Variant,self-cleavage
1,AACACUGCCAAUGCAGGUCCCAAGCCCGGAUAAAGGUGGAGGGGGCGG [C15A A35G],0.285
2,AACACUGCCAAUGCAGGUCCCAACCCCGGAUAAAAGUGGAGGGGGCGG [C15A G24C],0.0841
3,AACACUGCCAAUGCAGGUCCCAAACCCGGAUAAAAGUGGAGGGGGCGG [C15A G24A],0.0695
4,AACACUGCCAAUGCAGGUCCCAAGCCCGGAAAAAAGUGGAGGGGGCGG [C15A U31A],0.706
5,AACACUGCCAAUGCAGGUCCCAAGCCCGGAGAAAAGUGGAGGGGGCGG [C15A U31G],0.76
6,AACACUGCCAAUGCGGGUCCCAAGACCGGAUAAAAGUGGAGGGGGCGG [C15G C25A],0.0585
7,AACACUGCCAAUGCGGGUCCCAAGUCCGGAUAAAAGUGGAGGGGGCGG [C15G C25U],0.165
8,AACACUGCCAAUGCGGGUCCCAAGGCCGGAUAAAAGUGGAGGGGGCGG [C15G C25G],0.0786
9,AACACUGCCAAUGCUGGUCCCGAGCCCGGAUAAAAGUGGAGGGGGCGG [C15U A22G],0.147
10,AACACUGCCAAUGCGGGUCCCAAGCCCGGAUAAAAGUGGAUGGGGCGG [C15G G41U],0.0559
11,AACACUGCCAAUGCGGGUCCCAAGCCCGGAUAAAAGUGGAAGGGGCGG [C15G G41A],0.112
12,AACACUGCCAAUGCAGGUCCCAAGCCCGGAUAAAAGAGGAGGGGGCGG [C15A U37A],0.129
13,AACACUGCCAAUGCAGGUCCCAAGCCCGGAUAAAAGCGGAGGGGGCGG [C15A U37C],0.168
14,AACACUGCCAAUGCGGGUCCCAAGCCCGGAUAAAAGUAGAGGGGGCGG [C15G G38A],0.0635
15,AACACUGCCAAUGCGGGUACCAAGCCCGGAUAAAAGUGGAGGGGGCGG [C15G C19A],0.0812
16,AACACUGCCAAUGCGGGUGCCAAGCCCGGAUAAAAGUGGAGGGGGCGG [C15G C19G],0.0636
17,AACACUGCCAAUGCAGGUCCCAAGCCCGGAUAAAAGUGGAGCGGGCGG [C15A G42C],0.182
18,AACACUGCCAAUGCAGGUCCCAAGCCCGGAUAAAAGUGGAGUGGGCGG [C15A G42U],0.14
19,AACACUGCCAAUGCAGGUCCCAAGCCCGGAUAAAAGUGGAGGGGACGG [C15A G45A],0.478
20,AACACUGCCAAUGCAGGUCCCAAGCCCGGAUAAAAGUGGAGGGGCCGG [C15A G45C],0.352
21,AACACUGCCAAUGCAGGUCCCAAGCCCGGAUAAAAGUGGAGGGGGAGG [C15A C46A],0.565
22,AACACUGCCAAUGCAGGUCCCAAGCCCGGAUAAAAGUGGAGGGGGCUG [C15A G47U],0.332
23,AACACUGCCAAUGCAGGUCCCAAGCCCGGAUAAAAGUGGAGGGGGCCG [C15A G47C],0.253
24,AACACUGCCAAUGCGGGUCCCAAGCCCGGAUAACAGUGGAGGGGGCGG [C15G A34C],0.0577
25,AACACUGCCAAUGCGGGUCCCAAGCACGGAUAAAAGUGGAGGGGGCGG [C15G C26A],0.0956
26,AACACUGCCAAUGCGGGUCCCAAGCUCGGAUAAAAGUGGAGGGGGCGG [C15G C26U],0.0429
27,AACACUGCCAAUGCGGGUCCCAAGCCCGGAUAAAAGUGGAGGGCGCGG [C15G G44C],0.0763

row,Variant,self-cleavage
1,AACACUGCCAAUGCGGGUCCCAAGCCCGGAUAAAAGUGGAGGGUGCGG [C15G G44U],0.075
2,AACACUGCCAAUGCGGGUCCCAAGCCCUGAUAAAAGUGGAGGGGGCGG [C15G G28U],0.761
3,AACACUGCCAAUGCAGGUCCCAAGCCCGAAUAAAAGUGGAGGGGGCGG [C15A G29A],0.793
4,AACACUGCCAAUGCAGGUCCGAAGCCCGGAUAAAAGUGGAGGGGGCGG [C15A C21G],0.0777
5,AACACUGCCAAUGCAGGUCCCAAGCCCAGAUAAAAGUGGAGGGGGCGG [C15A G28A],0.865
6,AACACUGCCAAUGCAGGUCCCAAGCGCGGAUAAAAGUGGAGGGGGCGG [C15A C26G],0.108
7,AACACUGCCAAUGCAGGUCCCAAGCACGGAUAAAAGUGGAGGGGGCGG [C15A C26A],0.0686
8,AACACUGCCAAUGCAGGUCCCAAGCCGGGAUAAAAGUGGAGGGGGCGG [C15A C27G],0.0735
9,AACACUGCCAAUGCGGGUCCCAAGCCUGGAUAAAAGUGGAGGGGGCGG [C15G C27U],0.094
10,AACACUGCCAAUGCGGGUCCCAAGCCGGGAUAAAAGUGGAGGGGGCGG [C15G C27G],0.0738
11,AACACUGCCAAUGCGGGUCCCAAGCCAGGAUAAAAGUGGAGGGGGCGG [C15G C27A],0.198
12,AACACUGCCAAUGCGGGUCCUAAGCCCGGAUAAAAGUGGAGGGGGCGG [C15G C21U],0.0717
13,AACACUGCCAAUGCGGGUCCGAAGCCCGGAUAAAAGUGGAGGGGGCGG [C15G C21G],0.0959
14,AACACUGCCAAUGCGGGUCCAAAGCCCGGAUAAAAGUGGAGGGGGCGG [C15G C21A],0.077
15,AACACUGCCAAUGCUGGUCCCAAGCCCGGGUAAAAGUGGAGGGGGCGG [C15U A30G],0.759
16,AACACUGCCAAUGCUGGUCCCAAGCCCGGUUAAAAGUGGAGGGGGCGG [C15U A30U],0.925
17,AACACUGCCAAUGCUGGUCCCAAGCCCGGCUAAAAGUGGAGGGGGCGG [C15U A30C],0.802
18,AACACUGCCAAUGCAGGUCCCAAGCCCGGAUAAAAGUAGAGGGGGCGG [C15A G38A],0.4
19,AACACUGCCAAUGCAGGUCCCAAGCCCGGAUAAAAGUCGAGGGGGCGG [C15A G38C],0.452
20,AACACUGCCAAUGCGGGUCCCAGGCCCGGAUAAAAGUGGAGGGGGCGG [C15G A23G],0.0653
21,AACACUGCCAAUGCGGGUCCCAAGCCCGGAUAAAAGUGGAGGGGGUGG [C15G C46U],0.075
22,AACACUGCCAAUGCGGGUCCCAAGCCCGGAUAAAAGUGGAGGGGGGGG [C15G C46G],0.111
23,AACACUGCCAAUGCGGGUCCCAAGCCCGGAUAAAAGUGGAGGGGGAGG [C15G C46A],0.0745
24,AACACUGCCAAUGCGGGUCCCAAGCCCGGAUAAAAGUGGCGGGGGCGG [C15G A40C],0.0616
25,AACACUGCCAAUGCGGGUCCCAAGCCCGGAUAAAAGUGGGGGGGGCGG [C15G A40G],0.114
26,AACACUGCCAAUGCGGGUCCCAAGCCCGGAUAAAAGUGGAGGGGGCGA [C15G G48A],0.0877
27,AACACUGCCAAUGCGGGUCCCAAGCCCGGAUAAAAGUGGAGGGGGCGU [C15G G48U],0.0875
